Results on 20 molecules are retold here after publication doi:10.1101/2022.02.08.479534, “FoxP3 can fold into two distinct dimerization states with divergent functional implications for T cell homeostasis”.

Data set [1] concerns the target T1, FoxP3ΔN;NFAT1 (394-680) (Mus musculus;Mus musculus, UniProt Q99JB6;Q60591 188-423;394-680, |).
T1 sequence 1: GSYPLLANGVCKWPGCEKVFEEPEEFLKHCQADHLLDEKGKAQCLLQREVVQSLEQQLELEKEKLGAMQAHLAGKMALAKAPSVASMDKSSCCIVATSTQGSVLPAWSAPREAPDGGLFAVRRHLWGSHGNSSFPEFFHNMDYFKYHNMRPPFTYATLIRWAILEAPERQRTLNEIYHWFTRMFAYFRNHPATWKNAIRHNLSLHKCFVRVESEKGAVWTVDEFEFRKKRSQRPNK
T1 sequence 2: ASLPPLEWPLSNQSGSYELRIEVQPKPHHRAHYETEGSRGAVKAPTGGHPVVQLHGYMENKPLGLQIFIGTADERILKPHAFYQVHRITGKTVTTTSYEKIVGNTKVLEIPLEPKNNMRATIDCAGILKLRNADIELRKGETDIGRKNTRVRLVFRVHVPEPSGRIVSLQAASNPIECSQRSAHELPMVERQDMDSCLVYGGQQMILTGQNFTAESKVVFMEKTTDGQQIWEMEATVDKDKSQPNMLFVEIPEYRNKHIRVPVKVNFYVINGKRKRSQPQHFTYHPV
Nature of the data set: restriction enzyme protection; 1.6 uM FoxP3, 0.4 uM NFAT; XhoI and BamHI protected, EcoRI accessible; EMSA: 0.2 uM DNA, 20 mM Tris pH 7.5, 150 mM NaCl, 1.5 mM MgCl2, 2 mM DTT, 30 min at 4 C; anti-HA bead DNA pull-down: 20 min at room temperature; the EMSA IR-FKHM4g length is taken as 31 bp. To be noted: protein: recombinant;recombinant; tags: His6-NusA cleaved (HRV3C);His6-NusA cleaved; blunt. (Mobility shift assays separate free from complexed probe on a gel.)

For data set [2], the target named is T1, FoxP3ΔN;NFAT1 (394-680). Briefly: restriction enzyme protection; 3.2 uM FoxP3, 0.4 uM NFAT; XhoI protected, BamHI accessible; EMSA: 0.2 uM DNA, 20 mM Tris pH 7.5, 150 mM NaCl, 1.5 mM MgCl2, 2 mM DTT, 30 min at 4 C; anti-HA bead DNA pull-down: 20 min at room temperature; the EMSA IR-FKHM4g length is taken as 31 bp. Particulars: protein: recombinant;recombinant; tags: His6-NusA cleaved (HRV3C);His6-NusA cleaved; blunt.

In data set [3] the target is T2, MBP-FoxP3ΔN (Mus musculus, UniProt Q99JB6 188-423).
T2 sequence: T1 sequence 1
Briefly: MBP pull-down; EMSA: 0.2 uM DNA, 20 mM Tris pH 7.5, 150 mM NaCl, 1.5 mM MgCl2, 2 mM DTT, 30 min at 4 C; anti-HA bead DNA pull-down: 20 min at room temperature; the EMSA IR-FKHM4g length is taken as 31 bp. To be noted: protein: recombinant; tags: His6-MBP; blunt.

A further data set deals with T3, FoxP3ΔN (Mus musculus, UniProt Q99JB6 188-423).
T3 sequence: T1 sequence 1
Nature of the data set: EMSA; up to 0.8 uM; nearly undetectable; EMSA: 0.2 uM DNA, 20 mM Tris pH 7.5, 150 mM NaCl, 1.5 mM MgCl2, 2 mM DTT, 30 min at 4 C; anti-HA bead DNA pull-down: 20 min at room temperature; the EMSA IR-FKHM4g length is taken as 31 bp. Particulars: protein: recombinant; tags: His6-NusA cleaved (HRV3C); chain copies: 2; blunt.

A further data set concerns the target T4, NusA-FoxP2RBR-forkhead (Mus musculus, UniProt P58463 447-588).
T4 sequence: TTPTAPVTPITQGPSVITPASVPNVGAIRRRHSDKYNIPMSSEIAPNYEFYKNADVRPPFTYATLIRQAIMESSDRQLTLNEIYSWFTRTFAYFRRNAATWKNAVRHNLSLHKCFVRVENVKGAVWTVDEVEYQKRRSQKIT
Nature of the data set: EMSA; equal to IR-FKHM4g; EMSA: 0.2 uM DNA, 20 mM Tris pH 7.5, 150 mM NaCl, 1.5 mM MgCl2, 2 mM DTT, 30 min at 4 C; anti-HA bead DNA pull-down: 20 min at room temperature; the EMSA IR-FKHM4g length is taken as 31 bp. To be noted: protein: recombinant; tags: His6-NusA; blunt.

The target in the next data set is T5, NusA-FoxP4RBR-forkhead (Mus musculus, UniProt Q9DBY0 418-577).
T5 sequence: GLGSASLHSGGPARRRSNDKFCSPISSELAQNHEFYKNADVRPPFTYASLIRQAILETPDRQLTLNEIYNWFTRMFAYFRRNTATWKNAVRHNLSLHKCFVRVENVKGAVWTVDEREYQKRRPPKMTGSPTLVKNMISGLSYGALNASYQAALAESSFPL
The data set is described as above. Particulars: protein: recombinant; tags: His6-NusA; blunt.

Another data set addresses T6, NusA-FoxP1RBR-forkhead (Mus musculus, UniProt P58462 433-579).
T6 sequence: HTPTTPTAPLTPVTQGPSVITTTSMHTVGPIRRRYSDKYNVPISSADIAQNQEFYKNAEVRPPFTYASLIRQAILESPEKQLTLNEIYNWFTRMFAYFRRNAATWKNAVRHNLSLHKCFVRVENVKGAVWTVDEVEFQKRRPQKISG
Described as above. Particulars: protein: recombinant; tags: His6-NusA; blunt.

Data set [4] concerns the target T2, MBP-FoxP3ΔN. Nature of the data set: MBP pull-down; not efficiently bound; EMSA: 0.2 uM DNA, 20 mM Tris pH 7.5, 150 mM NaCl, 1.5 mM MgCl2, 2 mM DTT, 30 min at 4 C; anti-HA bead DNA pull-down: 20 min at room temperature; the EMSA IR-FKHM4g length is taken as 31 bp. To be noted: protein: recombinant; tags: His6-MBP; blunt.
Data set [5] addresses T2, MBP-FoxP3ΔN. Briefly: MBP pull-down; strong; EMSA: 0.2 uM DNA, 20 mM Tris pH 7.5, 150 mM NaCl, 1.5 mM MgCl2, 2 mM DTT, 30 min at 4 C; anti-HA bead DNA pull-down: 20 min at room temperature; the EMSA IR-FKHM4g length is taken as 31 bp. To be noted: protein: recombinant; tags: His6-MBP; blunt.

Substitutions are numbered along the chain they refer to.

B1: IR-FKHM4g (47bp) (dsDNA)
DNA 1: TTAGGAAAATTTGTTTACTCGAGTAAACAGTGGATCCGAATTCATAT
DNA 2: ATATGAATTCGGATCCACTGTTTACTCGAGTAAACAAATTTTCCTAA
Take B1: the binding result with FoxP3ΔN;NFAT1 (394-680) [1] is “binds”.

B2: IR-FKHM11g (54bp) (dsDNA)
DNA 1: TTAGGAAAATTTGTTTACTCGAGTGTACGGTAAACAGTGGATCCGAATTCATAT
DNA 2: ATATGAATTCGGATCCACTGTTTACCGTACACTCGAGTAAACAAATTTTCCTAA
On to B2, for which the binding result in the data set with FoxP3ΔN;NFAT1 (394-680) [2] was “binds”.

B3: IR-seq1 (dsDNA)
DNA 1: ATTTCGCGTCTCGAGACGCGAAAT
DNA 2: ATTTCGCGTCTCGAGACGCGAAAT
As to B3, in the data set with MBP-FoxP3ΔN [3], the binding result is reported as “no binding”.

B4: sFKHM (22bp) (dsDNA)
DNA 1: TTAGGAAAATTTGTTTACTCGA
DNA 2: TCGAGTAAACAAATTTTCCTAA
As for B4, in the data set with FoxP3ΔN, the binding result is recorded as “no binding”.

B5: IR-seq2 (dsDNA)
DNA 1: ATTTTGCGTCTCGAGACGCAAAAT
DNA 2: ATTTTGCGTCTCGAGACGCAAAAT
Take B5: in the data set with MBP-FoxP3ΔN [3], the binding result was “no binding”.

B6: IR-seq3 (dsDNA)
DNA 1: ATGATGCATCTCGAGATGCATCAT
DNA 2: ATGATGCATCTCGAGATGCATCAT
Consider B6, for which, in the data set with MBP-FoxP3ΔN [3], the binding result is “no binding”.

B7: FKHM-seq1 (dsDNA)
DNA 1: ATTTGTTTACTCGAGACGCGAAAT
DNA 2: ATTTCGCGTCTCGAGTAAACAAAT
For the molecule B7, in the data set with MBP-FoxP3ΔN [3], the binding result is on record as “binds”.

B8: sFKHM (31bp) (dsDNA)
DNA 1: TTAGGAAAATTTGTTTACTCGACGCGGCAAA
DNA 2: TTTGCCGCGTCGAGTAAACAAATTTTCCTAA
Consider B8, for which the binding result in the data set with NusA-FoxP2RBR-forkhead is given as “binds”; with NusA-FoxP4RBR-forkhead it was “binds”; with NusA-FoxP1RBR-forkhead, “binds”; with FoxP3ΔN it was “no binding”.

B9: Major FKHM-seq5 (dsDNA)
DNA 1: AAATGTTTACTAGGAATGCAATGA
DNA 2: TCATTGCATTCCTAGTAAACATTT
Regarding B9, in the data set with MBP-FoxP3ΔN [3], the binding result is listed as “binds”.

B10: FKHM-seq2 (dsDNA)
DNA 1: ATTTGTTTACTCGAGACGCAAAAT
DNA 2: ATTTTGCGTCTCGAGTAAACAAAT
Regarding B10, the binding result with MBP-FoxP3ΔN [3] was “binds”.

B11: FKHM-seq8 (dsDNA)
DNA 1: TTAGGAAAATTTGTTTACTCGAGGAAACAAA
DNA 2: TTTGTTTCCTCGAGTAAACAAATTTTCCTAA
As for B11, in the data set with MBP-FoxP3ΔN [3], the binding result is “binds”.

B12: IR-seq11 (dsDNA)
DNA 1: B11 DNA 1 with C18A, G23T, G24T
DNA 2: B11 DNA 2 with C8A, C9A, G14T
As for B12, the binding result in the data set with MBP-FoxP3ΔN [4] is on record as “no binding”.

B13: FKHM-seq9 (dsDNA)
DNA 1: B11 DNA 1 with G23T, G24A
DNA 2: B11 DNA 2 with C8T, C9A
For the molecule B13, in the data set with MBP-FoxP3ΔN [3], the binding result was “binds”.

B14: IR-seq8 (dsDNA)
DNA 1: B11 DNA 1 with A17C
DNA 2: B11 DNA 2 with T15G
For B14, the binding result with MBP-FoxP3ΔN [4] is “no binding”.

B15: FKHM-seq11 (dsDNA)
DNA 1: B11 DNA 1 with G23T, G24T
DNA 2: B11 DNA 2 with C8A, C9A
Turning to B15, in the data set with MBP-FoxP3ΔN [3], the binding result is recorded as “binds”.

B16: FKHM-seq3 (dsDNA)
DNA 1: ATTTGTTTACTCGAGATGCATCAT
DNA 2: ATGATGCATCTCGAGTAAACAAAT
Turning to B16, the binding result with MBP-FoxP3ΔN [3] is listed as “binds”.

B17: IR-seq9 (dsDNA)
DNA 1: TTAGGAAAATTTGTTTTATCGATAAAACAAA
DNA 2: TTTGTTTTATCGATAAAACAAATTTTCCTAA
Turning to B17, the binding result with MBP-FoxP3ΔN [4] was “no binding”.

B18: IR-seq5 (dsDNA)
DNA 1: TTAGGAAAATTTTGCATTTCGAAATGCAAAA
DNA 2: TTTTGCATTTCGAAATGCAAAATTTTCCTAA
On to B18, for which the binding result in the data set with MBP-FoxP3ΔN [4] is “no binding”.

B19: FKHM-seq5 (dsDNA)
DNA 1: TTAGGAAAATTTGTTTACTCGAAATGCAAAA
DNA 2: TTTTGCATTTCGAGTAAACAAATTTTCCTAA
On to B19, for which, in the data set with MBP-FoxP3ΔN [3], the binding result was “binds”.

B20: Major seq8-seq9 (dsDNA)
DNA 1: GTTTGTTTCCCAGGTAAAACAACC
DNA 2: GGTTGTTTTACCTGGGAAACAAAC
With B20, the binding result in the data set with MBP-FoxP3ΔN [5] is “binds”.
